Experimental data from the supplement of paper PMC9732359.
± gives the uncertainty stated by the source.

Test: protein stability index of a GFP-peptide fusion (yeast GPS) (PSI 1-4); higher = more stable; sorted into four equal gates, so the index is relative within each strain
Conditions: pdr5∆
In short: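 The protein stability index combines read frequencies across sorting gates, each weighted by its gate number and then summed. To obtain those frequencies, a pooled yeast library of GFP fusions to tiled 17-residue yeast protein peptides, on a plasmid also expressing Cherry, was grown to mid-log phase in leucine-free medium. The cells were sorted into four equal gates by GFP/Cherry ratio before plasmid amplification by PCR and Illumina sequencing.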

Sequence	protein stability index
NLGYCNDKLIVDNDNWV [RPN1]	2.79 ± 0.18
NLHALSMSLQSKNLGEI [SWI1]	2.61 ± 0.077
NLIIFLYKFNGWSLVGR [YML103C/NUP188]	2.22 ± 0.11
NLKDLNNVKQMVMAGSK [RPO21]	1.95 ± 0.12
NLKEYNKFMSIFLKRKD [SRB8]	2.22 ± 0.12
NLLPKKSAKATKASQEL [HTA1]	3.09 ± 0.12
NLPKDKSGIPEFTPADP [SSN2]	3.12 ± 0.075
NLRTQVTQQKRSLDENR [SMC1]	3.09 ± 0.066
NLSQENDNEGKHISASI [YAR002W/NUP60]	3.34 ± 0.06
NLTIHFGGEKGKRIREN [FAS1]	3.01 ± 0.18
NLWKNIFLSKENSAVAA [COR1]	2.24 ± 0.059
NMEKEKDRIIDERTKEF [YIL149C/MLP2]	2.93 ± 0.11
NMLICAPTGSGKTNIAL [BRR2]	3.12 ± 0.08
NMYTSTQKTELEIDNKD [SIR4]	3.01 ± 0.081
NNAHSSDLGTVVFDSNE [YMR153W/NUP53]	2.46 ± 0.093
NNDVFTIGPYRARKDRM [SSN3]	3.11 ± 0.26
NNFIVERVQSDENKDDE [SRP68]	3.35 ± 0.1
NNGLPMKNKAETTTEED [ITC1]	3.18 ± 0.1
NNGSSDKSLDSSNASFN [MED1]	3.04 ± 0.15
NNIFKEFTSKIGFTIKE [SMC1]	2.69 ± 0.063
NNIIRIQQLISQFLKRV [SNF11]	2.14 ± 0.057
NNKITQLIAKNVANVSG [SIR3]	1.88 ± 0.063
NNNEDNENNNNSSEKNN [MED2]	3.37 ± 0.043
NNNGNPGTTSTGNNNNI [GAL11]	3.34 ± 0.075
NNNNTIDESMPDTAIDS [GRR1]	3.02 ± 0.052
NNNQKIDDNYIVVVIEI [SRB8]	3.01 ± 0.065
NNPANNTNNNNSTGHSS [SWI1]	2.15 ± 0.035

Sequence	protein stability index
NNSTGIANDNVITPHFI [SWI1]	2.95 ± 0.042
NNTLSRYADAGNIDTKN [RRP43]	3.21 ± 0.058
NNTNTGASGVDDFQNFF [SWI1]	3.16 ± 0.065
NNVTSNPSEFTPNMVNS [SSN2]	3.03 ± 0.053
NNVYFAAGALFVSSGFD [RPN14]	2.81 ± 0.15
NPASATDNMSGRGLWNP [YJL039C/NUP192]	3.1 ± 0.082
NPDDDYGFKQEIFDVTS [FAS1]	3.45 ± 0.11
NPHDGVNSIALFVGTDR [RPN14]	2.42 ± 0.096
NPIDPFNIIREFRSAAG [YDL116W/NUP84]	3.14 ± 0.07
NPMVPSSVNEDTFLPPP [PRP8]	3.32 ± 0.06
NPSQGVSNSGAQDEEIH [UBP6]	2.22 ± 0.068
NPTEFDWPTYVDQNPLT [SRB8]	2.44 ± 0.043
NPVALEQKLVDLLKFEN [BRR2]	3.23 ± 0.11
NQKLALVIKSGKYTLGY [RPL30]	2.87 ± 0.09
NQLSQTNKLLFKRVSQT [NUT1]	1.36 ± 0.037
NQLVAKLLLLRINSTDE [SRB8]	1.22 ± 0.17
NQMKVAPIPKQLLQRIP [GAL11]	2.54 ± 0.062
NQTRKAHRNGIKKPKTY [RPL29]	2.98 ± 0.072
NQYKLVFYQVTPEDADE [RPL22B]	2.7 ± 0.082
NRHNLLNDVVSFLFSAI [SWI1]	2.58 ± 0.05
NRLSRIHLYMLTFHTLK [YLR018C/POM34]	1.58 ± 0.06
NRSVVYFKLDLTSDLVY [RRI2]	1.92 ± 0.28
NSAARNIQHLLYGKRFF [PRE7]	2.72 ± 0.084
NSANGSSLNGTNAKIPQ [SSN3]	2.72 ± 0.071
NSAVNNAISNTQDDFTT [SRP54]	3.07 ± 0.07
NSDHAKFTIEPGVLPVG [SNF2]	2.27 ± 0.054
NSKPVELKPVSLDNKTL [YJL041W/NSP1]	2.75 ± 0.059

Sequence	protein stability index
NSLAVRGKDCTVVISQK [SCL1]	2.9 ± 0.062
NSNKQAVAILADDEKSD [BRR2]	3.07 ± 0.071
NSSEKNNNNNNNNNNNN [MED2]	3.03 ± 0.058
NSSEQESDYEPNNETSV [SIR3]	3.27 ± 0.085
NSTASSSNISPEQVYSL [ARP7]	2.78 ± 0.046
NTENVESVPTPANAEPQ [ITC1]	3 ± 0.086
NTEQGDSDELGGESMEG [SNM1]	3.54 ± 0.11
NTFTWNHSLQHQNESSA [RPN4]	3.19 ± 0.055
NTGGESVVKKEDNKYAI [RGR1]	3.39 ± 0.1
NTGIVSSTTGMSYVVRI [RPT3]	3.04 ± 0.19
NTLRMKHGTYDKLDDDG [RPB2]	2.83 ± 0.061
NTMSAWVNMLLISSSGP [FAS2]	1.32 ± 0.051
NTNNNNNPANNTNNNNS [SWI1]	3 ± 0.03
NTNNNNSTGHSSNTNNN [SWI1]	2.29 ± 0.05
NTSLISLFTYFREAIVA [PRP8]	1.49 ± 0.054
NTSSKRQKKKPTSAQKS [IRR1]	2.59 ± 0.08
NTTTRVIPQVEVGNRKH [SNF5]	2.46 ± 0.095
NVANVSGSTEKAFKICE [SIR3]	2.91 ± 0.048
NVAVDIINFGEIEQNTE [RPN10]	3.39 ± 0.075
NVDNQTSDLVKSLGLKL [RPS17A]	3.29 ± 0.084
NVFARLSRLLSLWEVFQ [RPC82]	2.06 ± 0.13
NVFGQDNEDSDNLFGET [SWI3]	3.7 ± 0.13
NVGELIEKNVMESIGSD [RRP4]	3.03 ± 0.075
NVIDTQRKNGVTNSPLF [ECM29]	3.19 ± 0.091
NVIRSLEQEYRLILLLN [RMP1]	1.19 ± 0.022
NVKFLRIFISNVSENQP [SNF12]	1.63 ± 0.075
NVKNDVSFNDSQSMVTN [YIL149C/MLP2]	3.37 ± 0.081

Sequence	protein stability index
NVKYRAVVFKPFKGEVV [RPB7]	2.85 ± 0.047
NVLCVNIKSNDFSIRKT [ECM29]	2.66 ± 0.099
NVLNQINQIFSPEEQRS [GAL11]	2.93 ± 0.035
NVMTPREQYETQVALNE [UBP6]	3.22 ± 0.16
NVNNRFDNFLTEEELQA [BRN1]	2.63 ± 0.079
NVQTQYREAPVIYRGPE [RET1]	2.97 ± 0.069
NVSLIKIEGVATPQDAQ [RPL33A]	2.52 ± 0.061
NVTGGKAANFIQNQSPQ [SWI1]	2.79 ± 0.063
NVTKSSVGVIINKMVGN [RPL21A]	2.98 ± 0.11
NVTQNEQQWITRAQYLA [SRP68]	1.54 ± 0.072
NWRSFNAKIIDAEVAQF [SRP68]	2.56 ± 0.048
NYELEKIADNISKDENE [YDL116W/NUP84]	3.04 ± 0.077
NYTGWKAISVGANTSAA [PRE9]	1.36 ± 0.076
PAAESKIFTPNLLQISA [SNF5]	2.04 ± 0.11
PAEHPFISAARYKPKSH [RPC37]	3.04 ± 0.082
PANNHQLGLQTVIRGNS [SMX2]	3.19 ± 0.086
PASDDILDNINHNGSAL [ITC1]	3.21 ± 0.096
PASKQGYLITPPKHTEL [SSN2]	3.31 ± 0.3
PDENHDNTSHDEQDDDN [BRN1]	3.2 ± 0.095
PDENKTRVRLPSGAKKV [RPL2A]	2.96 ± 0.079
PDGLGEVGMKVQSGQIY [RET1]	3.15 ± 0.12
PDIVGHEFTLSFTYELK [BRR2]	2.06 ± 0.036
PDLPALEASYSKSYTPR [SMC4]	3.02 ± 0.088
PEENATEGPSDKKLNLN [SNF12]	3.59 ± 0.17
